The values below come from the supplement of paper PMC10598134.

The data set in a line: collision cross section of modified peptide (TIMS, N2, iRT-aligned); higher = larger / more extended gas-phase ion. Summed up:
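Values are averages of 1–3 technical replicates of the most abundant feature for each charge state. Collision cross section was obtained from the Mason-Schamp equation after 1/K0 calibration with three reference ions and run-wise alignment to the median iRT peptide deviation. Synthetic peptide pools (iRT standard spiked 1:40) were separated on a 120-min nanoflow C18 gradient at 60 °C, analysed on a timsTOF Pro/HT (dda-PASEF, nitrogen, ~2.4 mbar) and identified with MaxQuant.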

Setting [1] is: charge state: 3, modification: Biotin.
[2] abbreviates: charge state: 2, modification: hydroxyisobutyryl.
The mark [3] stands for this setting: charge state: 3, modification: hydroxyisobutyryl.
Where [4] appears, read: charge state: 3, modification: Methyl (K).
[5] abbreviates: charge state: 2, modification: Succinyl.
[6] abbreviates: charge state: 3, modification: Succinyl.
Setting [7] is: charge state: 2, modification: Acetyl (K).
Where [8] appears, read: charge state: 3, modification: Acetyl (K).
The mark [9] stands for this setting: charge state: 2, modification: Propionyl.
Where [10] appears, read: charge state: 2, modification: Crotonyl.
Where [11] appears, read: charge state: 2, modification: Hydroxyproline.
[12] abbreviates: charge state: 2, modification: Nitro (Y).
[13] abbreviates: charge state: 3, modification: Nitro (Y).
The mark [14] stands for this setting: charge state: 2, modification: Malonyl.
Setting [15] is: charge state: 2, modification: Formyl.
The mark [16] stands for this setting: charge state: 3, modification: Crotonyl.
Where [17] appears, read: charge state: 2, modification: GlyGly (K).
[18] abbreviates: charge state: 3, modification: GlyGly (K).
Where [19] appears, read: charge state: 3, modification: Methyl (R).
Where [20] appears, read: charge state: 2, modification: Glutarylation.
The mark [21] stands for this setting: charge state: 3, modification: Glutarylation.
The mark [22] stands for this setting: charge state: 2, modification: HexNAc (ST).
Setting [23] is: charge state: 2, modification: Methyl (K).
Where [24] appears, read: charge state: 2, modification: Butyryl.
Where [25] appears, read: charge state: 3, modification: Butyryl.
Setting [26] is: charge state: 2, modification: Dimethyl (K).
Setting [27] is: charge state: 3, modification: Dimethyl (K).
[28] abbreviates: charge state: 2, modification: Biotin.

± gives the standard deviation.

LDHLAEKFR [_LDHLAEK(Biotin)FR_]: the collision cross section under setting [1] is reported as 452.58 Å². With “DSSPTTNSKLSALQR [_DSSPTTNSK(hydroxyisobutyryl)LSALQR_]”, the collision cross section is 437.4 ± 0.29 Å² under setting [2] and 502.1 ± 2.1 Å² under setting [3]. “PGGEGPQCEKTTDVK [_PGGEGPQCEK(Methyl (K))TTDVK_]” showed a collision cross section under setting [4] of 460.64 Å². With “VTLEVGKVIQQGR [_VTLEVGK(Succinyl)VIQQGR_]”, the collision cross section by setting is: under setting [5], 412.33 ± 0.54 Å²; under setting [6], 481.23 ± 2 Å².

For “FGTINIVHPKLGSYTK [_FGTINIVHPK(Acetyl (K))LGSYTK_]”, the collision cross section runs as follows: under setting [7], 467.42 ± 3.8 Å²; under setting [8], 551.28 ± 1.6 Å². As for “SSGPGGQNVNKVNSK [_SSGPGGQNVNK(Propionyl)VNSK_]”, the collision cross section under setting [9] was 404.47 ± 0.49 Å². Consider “SDSGKPYYYNSQTK [_SDSGK(Succinyl)PYYYNSQTK_]”, for which, under setting [5], the collision cross section was 423.37 ± 1.1 Å². For the sequence INNFSADIKDSK [_INNFSADIK(Succinyl)DSK_], the collision cross section by setting is: under setting [5], 402.07 ± 0.25 Å²; under setting [6], 465.51 Å². Turning to “SDSGKPYYYNSQTK [_SDSGK(Crotonyl)PYYYNSQTK_]”, under setting [10], the collision cross section is recorded as 425.72 ± 0.29 Å². The sequence “GNPGVGTQGPR [_GNP(Hydroxyproline)GVGTQGPR_]” had a collision cross section under setting [11] of 327.91 ± 0.79 Å². For “DAEAAEATAEGALKAEK [_DAEAAEATAEGALK(Succinyl)AEK_]”, the collision cross section stood at 437.62 ± 0.51 Å² under setting [5] and 541.32 ± 2 Å² under setting [6]. Take “VTLEVGKVIQQGR [_VTLEVGK(hydroxyisobutyryl)VIQQGR_]”: the collision cross section runs as follows: under setting [2], 414.48 ± 0.55 Å²; under setting [3], 486.66 ± 1.9 Å². Take “VGTASVLQPVKK [_VGTASVLQPVK(Propionyl)K_]”: the collision cross section under setting [9] was 382.42 ± 0.33 Å². For the sequence YTQVGPDHNR [_Y(Nitro (Y))TQVGPDHNR_], the collision cross section under setting [12] stood at 361.98 ± 1.1 Å² and the collision cross section under setting [13] is given as 411.69 ± 0.22 Å².

“VNVEAPDVNLEGLGGKLK [_VNVEAPDVNLEGLGGK(Malonyl)LK_]” had a collision cross section under setting [14] of 463.09 ± 1.4 Å². Turning to “GGPGSTLSFVGKR [_GGPGSTLSFVGK(Acetyl (K))R_]”, the collision cross section reads like this: under setting [7], 381.14 ± 0.21 Å²; under setting [8], 429.09 ± 1.1 Å². GEVQVSDKER [_GEVQVSDK(Formyl)ER_] registered a collision cross section under setting [15] of 353.55 ± 2.5 Å². For “PSVGSQSNQAGQGKR [_PSVGSQSNQAGQGK(Crotonyl)R_]”, the collision cross section was found to be 420.02 ± 0.41 Å² under setting [10] and 468.33 ± 1.6 Å² under setting [16].

YTTNNSSEQR [_Y(Phospho (Y))TTNNSSEQR_]: the collision cross section (charge state: 2, modification: Phospho (Y)) was determined as 363.91 ± 0.65 Å². Take LQLEIDQKK [_LQLEIDQK(Malonyl)K_]: the collision cross section under setting [14] was found to be 367.76 ± 0.011 Å².

For the sequence SPDEAYAIAKK [_SPDEAYAIAK(GlyGly (K))K_], the collision cross section by setting is: under setting [17], 383.65 ± 0.88 Å²; under setting [18], 448.77 ± 3 Å².

For the sequence “DFAFYNPRLQGK [_DFAFYNPR(Methyl (R))LQGK_]”, the collision cross section (charge state: 2, modification: Methyl (R)) was 413.14 ± 0.67 Å² and the collision cross section under setting [19] is 469.16 ± 2.2 Å². On to “SKHLQEQLNELK [_SK(hydroxyisobutyryl)HLQEQLNELK_]”, for which the collision cross section runs as follows: under setting [2], 425.52 ± 0.81 Å²; under setting [3], 492.58 ± 2.1 Å². “GADFLVTEVENGGSLGSKK [_GADFLVTEVENGGSLGSK(Gluratylation)K_]”: the collision cross section under setting [20] is listed as 481.44 ± 2 Å² and the collision cross section under setting [21] was 556.42 Å². Turning to “DSINFLDHINGKK [_DSINFLDHINGK(Succinyl)K_]”, the collision cross section under setting [6] is recorded as 461.79 Å². Consider “VDGDTQTTVEK [_VDGDTQTT(HexNAc (ST))VEK_]”, for which the collision cross section under setting [22] is 383.53 ± 0.58 Å². In the case of “PGPKGEAGPTGPQGEPGVR [_P(Hydroxyproline)GPKGEAGPTGPQGEPGVR_]”, the collision cross section under setting [11] stood at 432.55 ± 0.34 Å² and the collision cross section (charge state: 3, modification: Hydroxyproline) stood at 487.03 ± 3.2 Å². “TLQKQSVVYGGK [_TLQK(Methyl (K))QSVVYGGK_]”: the collision cross section was found to be 395.77 ± 1.4 Å² under setting [23] and 446.7 ± 4.9 Å² under setting [4]. Consider “KYEEIDNAPEER [_K(hydroxyisobutyryl)YEEIDNAPEER_]”, for which the collision cross section under setting [2] is on record as 416.12 ± 0.31 Å² and the collision cross section under setting [3] amounted to 497.05 ± 3.9 Å². For “DFDTALKHYDK [_DFDTALK(hydroxyisobutyryl)HYDK_]”, the collision cross section amounted to 409.01 ± 0.39 Å² under setting [2] and 468.72 ± 1.9 Å² under setting [3]. Turning to “FGTINIVHPKLGSYTK [_FGTINIVHPK(Butyryl)LGSYTK_]”, the collision cross section was 477.38 ± 1.1 Å² under setting [24] and 553.18 ± 2.9 Å² under setting [25]. As to “ISALQGKLSK [_ISALQGK(hydroxyisobutyryl)LSK_]”, the collision cross section under setting [2] was 359.85 ± 0.79 Å².

As to AAGQPYEQHAK [_AAGQPY(Nitro (Y))EQHAK_], the collision cross section amounted to 375.04 ± 1.1 Å² under setting [12] and 431.09 ± 1.1 Å² under setting [13].

For “FGSRGGPGGGFR [_FGSR(Methyl (R))GGPGGGFR_]”, the collision cross section under setting [19] was found to be 435.83 ± 3.2 Å². On to LDYSDFQIVK [_LDY(Nitro (Y))SDFQIVK_], for which the collision cross section under setting [12] stood at 369.5 ± 0.55 Å². Take TTEETSKPK [_TTEETSK(Dimethyl (K))PK_]: the collision cross section is 338.18 ± 1.5 Å² under setting [26] and 409.31 Å² under setting [27]. For “SSSAGGQGSYVPLLR [_SSS(HexNAc (ST))AGGQGSYVPLLR_]”, the collision cross section under setting [22] is listed as 427.89 ± 0.57 Å². The sequence LEKTIDDLEEK [_LEK(GlyGly (K))TIDDLEEK_] registered a collision cross section under setting [17] of 403.14 ± 0.36 Å² and a collision cross section under setting [18] of 473.69 ± 1.1 Å². On to “VSPASSVDSNIPSSQGYKK [_VSPASSVDSNIPSSQGYK(Crotonyl)K_]”, for which the collision cross section is 464.78 ± 0.82 Å² under setting [10] and 560.75 ± 1.6 Å² under setting [16]. For “TEVLSPNSKVESK [_TEVLSPNSK(Crotonyl)VESK_]” the same measures were 417.97 ± 0.81 Å² and 452.38 ± 1.3 Å². Regarding ILDLKTGTVK [_ILDLK(GlyGly (K))TGTVK_], the collision cross section under setting [17] is 373.1 ± 0.25 Å² and the collision cross section under setting [18] is given as 439.15 ± 0.43 Å². As for “ILDLKTGTVK [_ILDLK(Gluratylation)TGTVK_]”, the collision cross section under setting [20] was 368.56 ± 0.72 Å². Consider “DASTLQSQKAEGTGDAK [_DASTLQSQK(Biotin)AEGTGDAK_]”, for which the collision cross section under setting [28] was determined as 450.36 ± 0.63 Å² and the collision cross section under setting [1] is recorded as 520.24 ± 1.3 Å². In turn, “VGLQVVAVKAPGFGDNR [_VGLQVVAVK(Succinyl)APGFGDNR_]” yielded a collision cross section under setting [5] of 449.31 ± 0.96 Å² and a collision cross section under setting [6] of 542.29 ± 1.1 Å².

“VNALKNLQVK [_VNALK(Gluratylation)NLQVK_]” yielded a collision cross section under setting [20] of 376.79 ± 0.1 Å².

“VFSIISSEKELK [_VFSIISSEK(hydroxyisobutyryl)ELK_]”: the collision cross section under setting [2] turned out to be 414.96 ± 0.83 Å². In turn, LDEKENLSAK [_LDEK(Biotin)ENLSAK_] gave a collision cross section under setting [28] of 382.87 Å². As to “HELQANCYEEVKDR [_HELQANCYEEVK(Acetyl (K))DR_]”, the collision cross section stood at 446.57 Å² under setting [7] and 495.42 ± 1.4 Å² under setting [8]. On to “IINEPTAAAIAYGLDKK [_IINEPTAAAIAYGLDK(Gluratylation)K_]”, for which the collision cross section runs as follows: under setting [20], 470.31 ± 1.8 Å²; under setting [21], 565.52 ± 1.3 Å². As to “VFIGNLNTLVVKK [_VFIGNLNTLVVK(Methyl (K))K_]”, the collision cross section under setting [23] amounted to 423.04 ± 1.2 Å² and the collision cross section under setting [4] is given as 477.31 ± 4.3 Å². Take GSLEKGSPEDK [_GSLEK(Methyl (K))GSPEDK_]: the collision cross section runs as follows: under setting [23], 357.31 ± 0.34 Å²; under setting [4], 434.75 ± 5.3 Å². The sequence TTEETSKPK [_TTEETSK(Formyl)PK_] had a collision cross section under setting [15] of 332.42 ± 4.9 Å². For the sequence “KYEEIDNAPEER [_K(Acetyl (K))YEEIDNAPEER_]”, the collision cross section runs as follows: under setting [7], 408.98 ± 1.6 Å²; under setting [8], 493.17 ± 8.3 Å². For the sequence “GGPGSTLSFVGKR [_GGPGSTLSFVGK(GlyGly (K))R_]”, the collision cross section by setting is: under setting [17], 403.34 ± 0.36 Å²; under setting [18], 451.29 ± 1.3 Å². As to “SALAAAQTQVAEYK [_S(HexNAc (ST))ALAAAQTQVAEYK_]”, under setting [22], the collision cross section worked out at 431.97 ± 0.62 Å². On to “DAEAAEATAEGALKAEK [_DAEAAEATAEGALK(Butyryl)AEK_]”, for which the collision cross section by setting is: under setting [24], 461.9 ± 22 Å²; under setting [25], 544.71 ± 2 Å². The sequence LTSLNVKYNNDK [_LTSLNVK(Formyl)YNNDK_] came in with a collision cross section under setting [15] of 404.27 ± 0.2 Å². As for “DKALPLEAEVAPVK [_DK(Dimethyl (K))ALPLEAEVAPVK_]”, the collision cross section is, setting by setting: under setting [26], 411.93 ± 0.85 Å²; under setting [27], 502.53 ± 1.6 Å².
